Measurements from patent publication US20240261333A1, “NOVEL TARGETS FOR ENHANCING ANTI-TUMOR IMMUNITY” (THE BROAD INSTITUTE, INC., priority 2021, published 2024).

How the values were obtained:
TAGLN = TAGLN (UniProt Q01995); experiment: co-IP, anti-FLAG, N-FLAG B3GNT2 cell lysate, mass spectrometry
HIST1H1E = HIST1H1E (UniProt P10412); experiment: as above
POF1B = POF1B (UniProt Q8WVV4); experiment: as above
CDSN = CDSN (UniProt Q15517); experiment: as above
EMD = EMD (UniProt P50402); experiment: as above
MTDH = MTDH (UniProt Q86UE4); experiment: as above
RPL19 = RPL19 (UniProt P84098); experiment: as above
PSMA7 = PSMA7 (UniProt O14818); experiment: as above
PBXIP1 = PBXIP1 (UniProt Q96AQ6); experiment: as above
DNAJA2 = DNAJA2 (UniProt O60884); experiment: as above
DNAJA1 (human) = DNAJA1 (human) (UniProt P31689); experiment: co-IP/MS, anti-FLAG IP of N-FLAG B3GNT2 cell lysate
RPS12 (human) = RPS12 (human) (UniProt P25398); experiment: as above
CALU (human) = CALU (human) (UniProt O43852); experiment: as above
CALU (human), sequence (O43852 20-315 limits assumed): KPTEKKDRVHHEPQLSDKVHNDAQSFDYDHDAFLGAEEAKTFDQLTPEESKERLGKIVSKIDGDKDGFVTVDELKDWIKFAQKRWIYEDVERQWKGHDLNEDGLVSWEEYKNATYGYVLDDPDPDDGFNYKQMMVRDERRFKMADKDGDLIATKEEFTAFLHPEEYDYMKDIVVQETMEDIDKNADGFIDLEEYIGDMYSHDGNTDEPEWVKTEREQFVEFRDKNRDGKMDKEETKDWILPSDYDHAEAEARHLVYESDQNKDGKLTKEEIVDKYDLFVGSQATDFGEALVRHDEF

RPL13A (human) = RPL13A (human) (UniProt P40429); experiment: as above
IPO4 (human) = IPO4 (human) (UniProt Q8TEX9); experiment: as above
IPO4 (human), sequence (Q8TEX9 whole entry): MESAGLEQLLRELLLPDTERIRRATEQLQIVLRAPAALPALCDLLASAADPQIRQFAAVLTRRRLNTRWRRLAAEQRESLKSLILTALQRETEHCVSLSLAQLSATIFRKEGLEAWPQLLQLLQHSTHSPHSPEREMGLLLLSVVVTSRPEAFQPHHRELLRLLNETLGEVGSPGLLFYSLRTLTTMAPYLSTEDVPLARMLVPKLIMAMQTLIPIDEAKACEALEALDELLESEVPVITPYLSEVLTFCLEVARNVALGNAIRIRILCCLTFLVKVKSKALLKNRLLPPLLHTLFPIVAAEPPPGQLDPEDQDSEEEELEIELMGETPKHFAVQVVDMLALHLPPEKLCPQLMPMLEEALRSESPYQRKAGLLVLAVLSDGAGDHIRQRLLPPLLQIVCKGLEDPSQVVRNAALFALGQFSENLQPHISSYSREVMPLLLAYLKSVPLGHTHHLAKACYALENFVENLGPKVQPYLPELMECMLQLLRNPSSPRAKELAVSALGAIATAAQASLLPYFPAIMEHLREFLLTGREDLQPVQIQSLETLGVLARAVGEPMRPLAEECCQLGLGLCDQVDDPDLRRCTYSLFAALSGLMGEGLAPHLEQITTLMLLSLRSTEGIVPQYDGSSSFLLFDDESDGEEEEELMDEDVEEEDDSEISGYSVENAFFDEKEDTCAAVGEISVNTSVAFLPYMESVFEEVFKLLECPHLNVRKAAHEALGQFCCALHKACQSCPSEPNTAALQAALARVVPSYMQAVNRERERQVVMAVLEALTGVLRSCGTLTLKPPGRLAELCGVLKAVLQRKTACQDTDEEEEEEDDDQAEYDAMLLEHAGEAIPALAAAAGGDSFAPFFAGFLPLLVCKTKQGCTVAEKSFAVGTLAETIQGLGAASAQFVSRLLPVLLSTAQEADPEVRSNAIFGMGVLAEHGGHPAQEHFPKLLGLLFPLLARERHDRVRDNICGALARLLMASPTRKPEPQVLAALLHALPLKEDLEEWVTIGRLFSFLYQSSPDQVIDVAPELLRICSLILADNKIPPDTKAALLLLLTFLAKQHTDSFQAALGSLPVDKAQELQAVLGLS

UQCRC2 (human) = UQCRC2 (human) (UniProt P22695); experiment: as above
UQCRC2 (human), sequence (P22695 15-453 limits assumed): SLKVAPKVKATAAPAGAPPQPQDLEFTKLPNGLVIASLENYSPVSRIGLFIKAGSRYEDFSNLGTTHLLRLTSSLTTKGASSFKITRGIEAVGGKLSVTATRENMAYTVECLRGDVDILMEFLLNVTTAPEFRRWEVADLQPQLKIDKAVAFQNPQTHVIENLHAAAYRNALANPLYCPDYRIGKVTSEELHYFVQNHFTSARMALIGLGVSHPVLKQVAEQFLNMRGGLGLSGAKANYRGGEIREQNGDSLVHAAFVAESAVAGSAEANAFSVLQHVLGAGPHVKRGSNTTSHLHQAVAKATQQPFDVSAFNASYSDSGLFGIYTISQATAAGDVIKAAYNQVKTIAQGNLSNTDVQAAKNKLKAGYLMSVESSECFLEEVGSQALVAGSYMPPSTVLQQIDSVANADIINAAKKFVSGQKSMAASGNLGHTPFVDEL

CAPZA1 (human) = CAPZA1 (human) (UniProt P52907); experiment: as above
SLC25A4 (human) = SLC25A4 (human) (UniProt P12235); experiment: as above
SLC25A4 (human), sequence (P12235 2-298 limits assumed): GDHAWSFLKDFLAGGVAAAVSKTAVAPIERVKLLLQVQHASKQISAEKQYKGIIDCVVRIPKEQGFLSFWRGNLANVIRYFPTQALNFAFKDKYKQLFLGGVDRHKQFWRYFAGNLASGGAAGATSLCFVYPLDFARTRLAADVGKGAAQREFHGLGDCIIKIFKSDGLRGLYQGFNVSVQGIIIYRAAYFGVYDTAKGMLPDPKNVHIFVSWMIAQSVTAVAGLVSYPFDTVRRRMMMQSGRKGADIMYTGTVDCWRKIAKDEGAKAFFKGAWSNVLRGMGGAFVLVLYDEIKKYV

HSD17B12 (human) = HSD17B12 (human) (UniProt Q53GQ0); experiment: as above
RPL12 (human) = RPL12 (human) (UniProt P30050); experiment: as above
ERLIN1 (human) = ERLIN1 (human) (UniProt O75477); experiment: as above
CANX (human) = CANX (human) (UniProt P27824); experiment: as above
CANX (human), sequence (P27824 21-592 limits assumed): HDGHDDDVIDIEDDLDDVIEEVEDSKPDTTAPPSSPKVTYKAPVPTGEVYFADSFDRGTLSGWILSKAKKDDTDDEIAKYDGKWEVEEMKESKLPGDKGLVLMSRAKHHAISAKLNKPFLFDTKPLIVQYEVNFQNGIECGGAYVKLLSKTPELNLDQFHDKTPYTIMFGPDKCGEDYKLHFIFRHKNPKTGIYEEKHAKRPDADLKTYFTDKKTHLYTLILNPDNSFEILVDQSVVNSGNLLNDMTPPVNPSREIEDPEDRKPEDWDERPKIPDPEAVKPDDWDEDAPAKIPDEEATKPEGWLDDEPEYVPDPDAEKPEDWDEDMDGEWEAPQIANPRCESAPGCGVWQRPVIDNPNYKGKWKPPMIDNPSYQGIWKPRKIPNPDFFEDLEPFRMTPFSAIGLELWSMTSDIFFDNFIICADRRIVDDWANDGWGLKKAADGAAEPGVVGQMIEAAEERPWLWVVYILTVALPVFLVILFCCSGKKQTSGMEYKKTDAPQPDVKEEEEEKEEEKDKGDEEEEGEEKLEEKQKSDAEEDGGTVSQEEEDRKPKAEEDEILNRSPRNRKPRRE

TUBB (human) = TUBB (human) (UniProt P07437); experiment: as above
RPS7 (human) = RPS7 (human) (UniProt P62081); experiment: as above
RPL23A (human) = RPL23A (human) (UniProt P62750); experiment: as above
RPLPO (human) = RPLPO (human) (UniProt P05388); experiment: as above
CASP14 (human) = CASP14 (human) (UniProt P31944); experiment: as above
CASP14 (human), sequence (P31944 whole entry): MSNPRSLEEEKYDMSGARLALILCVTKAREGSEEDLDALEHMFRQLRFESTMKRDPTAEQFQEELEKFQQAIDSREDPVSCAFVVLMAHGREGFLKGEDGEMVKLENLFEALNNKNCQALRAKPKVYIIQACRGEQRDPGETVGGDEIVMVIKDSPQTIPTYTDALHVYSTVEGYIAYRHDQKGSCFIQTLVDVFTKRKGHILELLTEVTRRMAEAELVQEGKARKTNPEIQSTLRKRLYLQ

ERLIN2 (human) = ERLIN2 (human) (UniProt O94905); experiment: as above
ERLIN2 (human), sequence (O94905 whole entry): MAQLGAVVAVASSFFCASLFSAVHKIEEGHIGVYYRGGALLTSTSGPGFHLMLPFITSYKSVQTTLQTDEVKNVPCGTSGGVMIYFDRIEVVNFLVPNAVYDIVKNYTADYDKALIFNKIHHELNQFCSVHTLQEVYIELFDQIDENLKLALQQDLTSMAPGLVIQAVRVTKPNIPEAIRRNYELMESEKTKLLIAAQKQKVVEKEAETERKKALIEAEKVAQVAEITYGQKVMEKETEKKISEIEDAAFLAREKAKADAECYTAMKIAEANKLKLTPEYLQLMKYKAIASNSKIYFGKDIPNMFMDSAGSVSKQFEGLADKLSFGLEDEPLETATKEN

PIP (human) = PIP (human) (UniProt P12273); experiment: as above
PIP (human), sequence (P12273 29-146 limits assumed): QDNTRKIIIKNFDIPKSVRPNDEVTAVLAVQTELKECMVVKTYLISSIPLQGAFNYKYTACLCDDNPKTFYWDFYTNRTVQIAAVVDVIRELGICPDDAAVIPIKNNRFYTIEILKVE

RCN2 (human) = RCN2 (human) (UniProt Q14257); experiment: as above
FAM3C (human) = FAM3C (human) (UniProt Q92520); experiment: as above
PCBP1 (human) = PCBP1 (human) (UniProt Q15365); experiment: as above
PCBP1 (human), sequence (Q15365 whole entry): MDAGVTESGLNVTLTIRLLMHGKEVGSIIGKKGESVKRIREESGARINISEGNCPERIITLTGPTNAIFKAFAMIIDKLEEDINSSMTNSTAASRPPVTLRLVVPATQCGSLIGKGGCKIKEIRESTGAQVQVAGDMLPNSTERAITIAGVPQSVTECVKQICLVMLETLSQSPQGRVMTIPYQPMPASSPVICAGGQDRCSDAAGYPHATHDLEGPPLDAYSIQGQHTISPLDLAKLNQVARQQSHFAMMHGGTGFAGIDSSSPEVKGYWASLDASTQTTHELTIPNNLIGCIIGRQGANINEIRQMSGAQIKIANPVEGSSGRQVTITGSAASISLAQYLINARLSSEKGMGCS

PDIA6 (human) = PDIA6 (human) (UniProt Q15084); experiment: as above
PDIA6 (human), sequence (Q15084 20-440 limits assumed): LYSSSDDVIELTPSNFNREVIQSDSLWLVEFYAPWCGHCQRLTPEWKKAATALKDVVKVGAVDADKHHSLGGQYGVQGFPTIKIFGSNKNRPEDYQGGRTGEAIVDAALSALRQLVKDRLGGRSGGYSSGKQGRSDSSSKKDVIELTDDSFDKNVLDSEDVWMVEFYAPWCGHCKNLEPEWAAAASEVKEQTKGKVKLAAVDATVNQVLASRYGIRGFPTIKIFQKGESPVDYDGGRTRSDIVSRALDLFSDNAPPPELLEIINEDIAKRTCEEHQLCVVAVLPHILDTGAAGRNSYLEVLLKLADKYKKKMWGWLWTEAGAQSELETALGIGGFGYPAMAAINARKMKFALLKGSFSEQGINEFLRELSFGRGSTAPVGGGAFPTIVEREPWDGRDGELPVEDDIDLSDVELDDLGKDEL

SQSTM1 (human) = SQSTM1 (human) (UniProt Q13501); experiment: as above
ATP1A1 (human) = ATP1A1 (human) (UniProt P05023); experiment: as above
LRP1 (human) = LRP1 (human) (UniProt Q07954); experiment: as above
TGM3 (human) = TGM3 (human) (UniProt Q08188); experiment: as above
GCN1 (human) = GCN1 (human) (UniProt Q92616); experiment: as above

TAGLN, sequence (Q01995 2-201 limits assumed): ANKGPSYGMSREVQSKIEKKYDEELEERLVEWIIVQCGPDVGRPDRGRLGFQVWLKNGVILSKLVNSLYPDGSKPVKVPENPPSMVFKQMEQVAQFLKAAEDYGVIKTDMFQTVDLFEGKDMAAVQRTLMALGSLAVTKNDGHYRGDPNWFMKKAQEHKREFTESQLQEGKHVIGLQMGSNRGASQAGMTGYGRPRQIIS
CDSN, sequence (Q15517 33-529 limits assumed): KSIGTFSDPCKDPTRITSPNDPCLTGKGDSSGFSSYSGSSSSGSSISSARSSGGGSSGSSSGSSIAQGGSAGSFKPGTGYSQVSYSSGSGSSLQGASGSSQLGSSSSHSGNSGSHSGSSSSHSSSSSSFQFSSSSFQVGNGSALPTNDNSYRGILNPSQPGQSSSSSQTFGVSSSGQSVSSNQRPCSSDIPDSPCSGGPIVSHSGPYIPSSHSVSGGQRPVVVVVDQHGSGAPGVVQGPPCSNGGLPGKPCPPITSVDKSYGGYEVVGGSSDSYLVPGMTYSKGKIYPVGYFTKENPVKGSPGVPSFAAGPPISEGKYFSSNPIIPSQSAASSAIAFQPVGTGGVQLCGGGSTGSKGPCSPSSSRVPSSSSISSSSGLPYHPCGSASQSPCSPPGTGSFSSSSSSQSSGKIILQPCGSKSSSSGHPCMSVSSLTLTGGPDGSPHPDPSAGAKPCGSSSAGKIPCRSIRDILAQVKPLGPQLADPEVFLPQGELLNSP

With “N-terminal FLAG tagged B3GNT2 (from UniProt Q9NY97 1-397) (enzyme)” the co-IP mass spectrometry count (TAGLN) was 2, the co-IP mass spectrometry count (HIST1H1E) was 6 and the co-IP mass spectrometry count (POF1B) was 5. The co-IP mass spectrometry count (CDSN) was 5, the co-IP mass spectrometry count (EMD) was 2 and the co-IP mass spectrometry count (MTDH) was 0. The co-IP mass spectrometry count (RPL19) was 8, the co-IP mass spectrometry count (PSMA7) was 4 and the co-IP mass spectrometry count (PBXIP1) was 2. For the same substance, the co-IP mass spectrometry count (DNAJA2) was 3, the co-IP mass spectrometry count (DNAJA1 (human)) was 6 and the co-IP mass spectrometry count (RPS12 (human)) was 3. It also gave a co-IP mass spectrometry count (CALU (human)) of 10, a co-IP mass spectrometry count (RPL13A (human)) of 4 and a co-IP mass spectrometry count (IPO4 (human)) of 3. For the same substance, the co-IP mass spectrometry count (UQCRC2 (human)) was 13, the co-IP mass spectrometry count (CAPZA1 (human)) was 2 and the co-IP mass spectrometry count (SLC25A4 (human)) was 9. The co-IP mass spectrometry count (HSD17B12 (human)) was 10, the co-IP mass spectrometry count (RPL12 (human)) was 9 and the co-IP mass spectrometry count (ERLIN1 (human)) was 11. For the same substance, the co-IP mass spectrometry count (CANX (human)) was 6, the co-IP mass spectrometry count (TUBB (human)) was 164 and the co-IP mass spectrometry count (RPS7 (human)) was 8. For the same substance, the co-IP mass spectrometry count (RPL23A (human)) was 6, the co-IP mass spectrometry count (RPLPO (human)) was 6 and the co-IP mass spectrometry count (CASP14 (human)) was 8. For the same substance, the co-IP mass spectrometry count (ERLIN2 (human)) was 8, the co-IP mass spectrometry count (PIP (human)) was 4 and the co-IP mass spectrometry count (RCN2 (human)) was 7. The co-IP mass spectrometry count (FAM3C (human)) was 2, the co-IP mass spectrometry count (PCBP1 (human)) was 4 and the co-IP mass spectrometry count (PDIA6 (human)) was 5. For the same substance, the co-IP mass spectrometry count (SQSTM1 (human)) was 3, the co-IP mass spectrometry count (ATP1A1 (human)) was 11 and the co-IP mass spectrometry count (LRP1 (human)) was 2. For the same substance, the co-IP mass spectrometry count (TGM3 (human)) was 9 and the co-IP mass spectrometry count (GCN1 (human)) was 14.
